*1 amine or outer side, *2 acyl side, *3 side chain or, on linkers, in order; H or OH if unused. Where no end group is shown, it is not given here. Side-chain parts run from the residue outwards. [ ]: non-standard residue; d: D form. The star is where a group is joined. γGlu = O=C(O)[C@H](CCC(=O)[*:2])N[*:1]; Stearoyl = CCCCCCCCCCCCCCCCCC(=O)*; Palmitoyl = CCCCCCCCCCCCCCCC(=O)*; Aib = CC(C)(N)C(=O)O

What all share (assay): cell-based or functional assay
For one experiment, the target named is human GLP-1 receptor (human, UniProt P43220 24-463).
A further experiment deals with T1, human GIP receptor (human, UniProt P48546 22-466).
T1 sequence (looked up): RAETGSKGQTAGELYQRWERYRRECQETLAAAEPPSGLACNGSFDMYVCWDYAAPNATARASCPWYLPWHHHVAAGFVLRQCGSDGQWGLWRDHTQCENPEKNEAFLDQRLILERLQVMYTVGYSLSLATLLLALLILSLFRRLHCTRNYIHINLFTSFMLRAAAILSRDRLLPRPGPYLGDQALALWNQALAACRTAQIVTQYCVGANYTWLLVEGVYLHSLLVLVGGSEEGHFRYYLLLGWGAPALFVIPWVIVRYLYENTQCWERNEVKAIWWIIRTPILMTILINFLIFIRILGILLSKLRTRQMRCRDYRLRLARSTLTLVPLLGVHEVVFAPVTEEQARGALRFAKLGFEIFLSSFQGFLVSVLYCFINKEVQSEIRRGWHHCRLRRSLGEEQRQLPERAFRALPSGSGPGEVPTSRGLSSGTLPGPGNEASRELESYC

The next experiment deals with human glucagon receptor (human, UniProt P47871 26-477).
Chain of human glucagon receptor (P47871 26-477): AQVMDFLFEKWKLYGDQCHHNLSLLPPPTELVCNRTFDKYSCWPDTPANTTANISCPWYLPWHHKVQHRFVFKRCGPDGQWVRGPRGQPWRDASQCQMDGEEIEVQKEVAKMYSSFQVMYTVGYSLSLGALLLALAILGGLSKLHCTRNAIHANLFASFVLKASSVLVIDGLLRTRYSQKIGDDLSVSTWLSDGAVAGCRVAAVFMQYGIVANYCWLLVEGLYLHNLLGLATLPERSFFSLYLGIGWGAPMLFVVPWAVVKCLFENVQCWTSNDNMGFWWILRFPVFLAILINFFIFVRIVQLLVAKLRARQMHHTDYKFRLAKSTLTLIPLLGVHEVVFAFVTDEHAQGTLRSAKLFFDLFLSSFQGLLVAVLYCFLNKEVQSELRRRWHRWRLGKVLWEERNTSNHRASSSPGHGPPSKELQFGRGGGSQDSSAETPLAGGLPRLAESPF

B1: exendin-4 peptide analogue SEQ ID NO: 59 (peptide)
peptide: Y[Aib]EGTFTSDLSIQK([γGlu-Palmitoyl])EKRAAHEFIEWLKNTGPSSGAPPPS-NH2
modifications: N-terminus assumed
SMILES: CCCCCCCCCCCCCCCC(=O)N[C@@H](CCC(=O)NCCCC[C@H](NC(=O)[C@H](CCC(N)=O)NC(=O)[C@@H](NC(=O)[C@H](CO)NC(=O)[C@H](CC(C)C)NC(=O)[C@H](CC(=O)O)NC(=O)[C@H](CO)NC(=O)[C@@H](NC(=O)[C@H](Cc1ccccc1)NC(=O)[C@@H](NC(=O)CNC(=O)[C@H](CCC(=O)O)NC(=O)C(C)(C)NC(=O)[C@@H](N)Cc1ccc(O)cc1)[C@@H](C)O)[C@@H](C)O)[C@@H](C)CC)C(=O)N[C@@H](CCC(=O)O)C(=O)N[C@@H](CCCCN)C(=O)N[C@@H](CCCNC(=N)N)C(=O)N[C@@H](C)C(=O)N[C@@H](C)C(=O)N[C@@H](Cc1c[nH]cn1)C(=O)N[C@@H](CCC(=O)O)C(=O)N[C@@H](Cc1ccccc1)C(=O)N[C@H](C(=O)N[C@@H](CCC(=O)O)C(=O)N[C@@H](Cc1c[nH]c2ccccc12)C(=O)N[C@@H](CC(C)C)C(=O)N[C@@H](CCCCN)C(=O)N[C@@H](CC(N)=O)C(=O)N[C@H](C(=O)NCC(=O)N1CCC[C@H]1C(=O)N[C@@H](CO)C(=O)N[C@@H](CO)C(=O)NCC(=O)N[C@@H](C)C(=O)N1CCC[C@H]1C(=O)N1CCC[C@H]1C(=O)N1CCC[C@H]1C(=O)N[C@@H](CO)C(N)=O)[C@@H](C)O)[C@@H](C)CC)C(=O)O
As for B1, in the experiment with human GLP-1 receptor, the “EC50 hGLP-1 R” value stood at 7.5 pM. Further, the “EC50 hGIP R” value with human GIP receptor came out at 17.5 pM. In the experiment with human glucagon receptor, the “EC50 hGLUC R” value turned out to be 12300 pM.

B2: exendin-4 peptide analogue SEQ ID NO: 58 (peptide)
peptide: Y[Aib]EGTFTSDLSIQK([γGlu-Stearoyl])ESKAAHEFIEWLKAGGPSSGAPPPSK-NH2
modifications: N-terminus assumed
SMILES: CCCCCCCCCCCCCCCCCC(=O)N[C@@H](CCC(=O)NCCCC[C@H](NC(=O)[C@H](CCC(N)=O)NC(=O)[C@@H](NC(=O)[C@H](CO)NC(=O)[C@H](CC(C)C)NC(=O)[C@H](CC(=O)O)NC(=O)[C@H](CO)NC(=O)[C@@H](NC(=O)[C@H](Cc1ccccc1)NC(=O)[C@@H](NC(=O)CNC(=O)[C@H](CCC(=O)O)NC(=O)C(C)(C)NC(=O)[C@@H](N)Cc1ccc(O)cc1)[C@@H](C)O)[C@@H](C)O)[C@@H](C)CC)C(=O)N[C@@H](CCC(=O)O)C(=O)N[C@@H](CO)C(=O)N[C@@H](CCCCN)C(=O)N[C@@H](C)C(=O)N[C@@H](C)C(=O)N[C@@H](Cc1c[nH]cn1)C(=O)N[C@@H](CCC(=O)O)C(=O)N[C@@H](Cc1ccccc1)C(=O)N[C@H](C(=O)N[C@@H](CCC(=O)O)C(=O)N[C@@H](Cc1c[nH]c2ccccc12)C(=O)N[C@@H](CC(C)C)C(=O)N[C@@H](CCCCN)C(=O)N[C@@H](C)C(=O)NCC(=O)NCC(=O)N1CCC[C@H]1C(=O)N[C@@H](CO)C(=O)N[C@@H](CO)C(=O)NCC(=O)N[C@@H](C)C(=O)N1CCC[C@H]1C(=O)N1CCC[C@H]1C(=O)N1CCC[C@H]1C(=O)N[C@@H](CO)C(=O)N[C@@H](CCCCN)C(N)=O)[C@@H](C)CC)C(=O)O
Regarding B2, in the experiment with human GLP-1 receptor, the “EC50 hGLP-1 R” value stood at 12.5 pM. Moreover, the “EC50 hGIP R” value with human GIP receptor worked out at 8.6 pM. In addition, the “EC50 hGLUC R” value with human glucagon receptor was 16000 pM.

B3: exendin-4 peptide analogue SEQ ID NO: 61 (peptide)
peptide: Y[Aib]QGTFTSDLSKQK([γGlu-Palmitoyl])DSKAAQDFIEWLKAGGPSSGAPPPS-NH2
modifications: N-terminus assumed
SMILES: CCCCCCCCCCCCCCCC(=O)N[C@@H](CCC(=O)NCCCC[C@H](NC(=O)[C@H](CCC(N)=O)NC(=O)[C@H](CCCCN)NC(=O)[C@H](CO)NC(=O)[C@H](CC(C)C)NC(=O)[C@H](CC(=O)O)NC(=O)[C@H](CO)NC(=O)[C@@H](NC(=O)[C@H](Cc1ccccc1)NC(=O)[C@@H](NC(=O)CNC(=O)[C@H](CCC(N)=O)NC(=O)C(C)(C)NC(=O)[C@@H](N)Cc1ccc(O)cc1)[C@@H](C)O)[C@@H](C)O)C(=O)N[C@@H](CC(=O)O)C(=O)N[C@@H](CO)C(=O)N[C@@H](CCCCN)C(=O)N[C@@H](C)C(=O)N[C@@H](C)C(=O)N[C@@H](CCC(N)=O)C(=O)N[C@@H](CC(=O)O)C(=O)N[C@@H](Cc1ccccc1)C(=O)N[C@H](C(=O)N[C@@H](CCC(=O)O)C(=O)N[C@@H](Cc1c[nH]c2ccccc12)C(=O)N[C@@H](CC(C)C)C(=O)N[C@@H](CCCCN)C(=O)N[C@@H](C)C(=O)NCC(=O)NCC(=O)N1CCC[C@H]1C(=O)N[C@@H](CO)C(=O)N[C@@H](CO)C(=O)NCC(=O)N[C@@H](C)C(=O)N1CCC[C@H]1C(=O)N1CCC[C@H]1C(=O)N1CCC[C@H]1C(=O)N[C@@H](CO)C(N)=O)[C@@H](C)CC)C(=O)O
As to B3, in the experiment with human GLP-1 receptor, the “EC50 hGLP-1 R” value was 2.4 pM. Moreover, the “EC50 hGIP R” value in the experiment with human GIP receptor was 21.4 pM. Further, in the experiment with human glucagon receptor, the “EC50 hGLUC R” value turned out to be 6.1 pM.

B4: exendin-4 peptide analogue SEQ ID NO: 60 (peptide)
peptide: Y[Aib]QGTFTSDLSKQK([γGlu-Stearoyl])DEEAARLFIEWLKAGGPSSGAPPPS-NH2
modifications: N-terminus assumed
SMILES: CCCCCCCCCCCCCCCCCC(=O)N[C@@H](CCC(=O)NCCCC[C@H](NC(=O)[C@H](CCC(N)=O)NC(=O)[C@H](CCCCN)NC(=O)[C@H](CO)NC(=O)[C@H](CC(C)C)NC(=O)[C@H](CC(=O)O)NC(=O)[C@H](CO)NC(=O)[C@@H](NC(=O)[C@H](Cc1ccccc1)NC(=O)[C@@H](NC(=O)CNC(=O)[C@H](CCC(N)=O)NC(=O)C(C)(C)NC(=O)[C@@H](N)Cc1ccc(O)cc1)[C@@H](C)O)[C@@H](C)O)C(=O)N[C@@H](CC(=O)O)C(=O)N[C@@H](CCC(=O)O)C(=O)N[C@@H](CCC(=O)O)C(=O)N[C@@H](C)C(=O)N[C@@H](C)C(=O)N[C@@H](CCCNC(=N)N)C(=O)N[C@@H](CC(C)C)C(=O)N[C@@H](Cc1ccccc1)C(=O)N[C@H](C(=O)N[C@@H](CCC(=O)O)C(=O)N[C@@H](Cc1c[nH]c2ccccc12)C(=O)N[C@@H](CC(C)C)C(=O)N[C@@H](CCCCN)C(=O)N[C@@H](C)C(=O)NCC(=O)NCC(=O)N1CCC[C@H]1C(=O)N[C@@H](CO)C(=O)N[C@@H](CO)C(=O)NCC(=O)N[C@@H](C)C(=O)N1CCC[C@H]1C(=O)N1CCC[C@H]1C(=O)N1CCC[C@H]1C(=O)N[C@@H](CO)C(N)=O)[C@@H](C)CC)C(=O)O
On to B4, for which, in the experiment with human GLP-1 receptor, the “EC50 hGLP-1 R” value was found to be 5.3 pM. Further, the “EC50 hGIP R” value with human GIP receptor was 16.8 pM. Besides, the “EC50 hGLUC R” value in the experiment with human glucagon receptor worked out at 9.1 pM.

(Values after patent publication US20140213513A1 (Sanofi, priority 2012, published 2014).)
